The values below come from paper PMC9190237 (Biochemistry, 2022).

B1: Unmodified H3^(FAM) peptide (ARTKQTARKSTGG{K-FAM}) (peptide)
peptide: ARTKQTARKSTGGK(FAM)

Where no end group is shown, it is not given here. FAM = fluorescein

Experiment [1] has as its target UHRF1^PHD (as used for tryptophan fluorescence) (human (by the printed accession)). The experiment can be described thus: intrinsic tryptophan fluorescence quenching.
For a further experiment, the target named is T1, UHRF1^PHD (Homo sapiens, UniProt Q96T88).
T1 sequence (Q96T88 298-366): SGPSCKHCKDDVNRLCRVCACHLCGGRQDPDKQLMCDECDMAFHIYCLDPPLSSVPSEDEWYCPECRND
The experiment can be described thus: Intrinsic tryptophan. It counts as binding. The conditions noted are these: 5 μM peptide, 1 μM UHRF1^PHD.

Experiment [2] addresses T2, UHRF1^TTD-PHD (His-tagged TTD-PHD domains of UHRF1; residues 133-366) (human (by the printed accession), UniProt Q96T88-1 133-366).
T2 sequence (looked up): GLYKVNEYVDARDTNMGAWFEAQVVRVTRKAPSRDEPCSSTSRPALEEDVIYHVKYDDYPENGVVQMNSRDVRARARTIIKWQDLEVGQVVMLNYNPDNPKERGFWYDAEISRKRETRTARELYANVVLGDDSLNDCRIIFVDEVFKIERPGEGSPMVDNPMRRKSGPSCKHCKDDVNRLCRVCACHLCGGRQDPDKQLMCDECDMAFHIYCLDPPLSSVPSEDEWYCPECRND
The experiment can be described thus: AlphaScreen or HTRF. A general note: Bead proximity is the source of the signal in Alpha formats.

Experiment [3] deals with T2, UHRF1^TTD-PHD (His-tagged TTD-PHD …). Briefly: fluorescence polarisation. A general note: Fluorescence polarisation rises when a labelled molecule tumbles more slowly, as on binding a larger partner.
Experiment [4] concerns the target T3, Full-length UHRF1 (N-terminal 6xHis tag) (human (by the printed accession), UniProt Q96T88-1 1-793).
T3 sequence (looked up): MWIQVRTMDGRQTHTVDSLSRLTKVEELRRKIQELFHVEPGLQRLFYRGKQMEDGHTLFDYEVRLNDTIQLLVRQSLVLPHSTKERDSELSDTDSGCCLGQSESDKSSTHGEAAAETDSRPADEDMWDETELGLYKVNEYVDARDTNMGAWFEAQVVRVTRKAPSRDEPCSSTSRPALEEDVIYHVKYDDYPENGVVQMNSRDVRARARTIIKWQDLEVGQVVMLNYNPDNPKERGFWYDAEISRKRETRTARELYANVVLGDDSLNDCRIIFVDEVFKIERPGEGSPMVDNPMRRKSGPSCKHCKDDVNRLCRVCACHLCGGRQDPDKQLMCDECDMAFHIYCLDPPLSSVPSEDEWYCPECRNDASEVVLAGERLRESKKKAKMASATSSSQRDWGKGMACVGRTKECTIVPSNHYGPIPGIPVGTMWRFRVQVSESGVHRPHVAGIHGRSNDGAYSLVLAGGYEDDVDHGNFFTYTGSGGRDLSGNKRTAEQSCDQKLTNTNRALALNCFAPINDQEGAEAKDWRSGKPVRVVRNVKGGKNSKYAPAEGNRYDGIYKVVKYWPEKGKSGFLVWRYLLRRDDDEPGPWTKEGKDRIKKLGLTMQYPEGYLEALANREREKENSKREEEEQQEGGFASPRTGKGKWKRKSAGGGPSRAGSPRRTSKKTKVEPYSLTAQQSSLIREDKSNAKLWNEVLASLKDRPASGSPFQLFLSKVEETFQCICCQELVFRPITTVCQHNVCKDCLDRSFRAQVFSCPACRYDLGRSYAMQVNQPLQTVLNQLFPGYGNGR
Briefly: fluorescence polarisation.

For experiment [5], the target named is T4, UHRF1^TTD (TTD construct alone; residues 127-285) (human (by the printed accession), UniProt Q96T88-1 127-285).
T4 sequence (looked up): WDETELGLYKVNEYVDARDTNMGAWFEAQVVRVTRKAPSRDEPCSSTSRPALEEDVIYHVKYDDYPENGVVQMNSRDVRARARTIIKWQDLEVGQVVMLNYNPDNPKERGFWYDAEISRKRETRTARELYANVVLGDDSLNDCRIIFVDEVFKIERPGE
Briefly: fluorescence polarisation.

Experiment [6] has as its target T2, UHRF1^TTD-PHD (His-tagged TTD-PHD …). The experiment can be described thus: fluorescence polarisation. The source holds these as a separate data set.
For experiment [7], the target named is T5, GST-UHRF1^PHD (residues 298-366) (human (by the printed accession), UniProt Q96T88-1 298-366).
T5 sequence (looked up): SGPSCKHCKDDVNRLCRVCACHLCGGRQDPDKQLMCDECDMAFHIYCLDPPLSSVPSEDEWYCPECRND
Briefly: fluorescence polarisation.

The target of experiment [8] is B1. The experiment can be described thus: fluorescence polarisation.

Molecule “H3K9me3^(FAM) peptide (ARTKQTAR{K-me3}STGG{K-FAM})” gave a percent quenching of W358 fluorescence in [1] of 50%.
“ARTKQTAR{K-me3}STGG{K-FAM} [H3K9me3^(FAM)]”: the “W358 tryptophan fluorescence quenching of UHRF1^PHD” value on UHRF1^PHD is ~ 50%.
For ARTKQTARKSTGGKW (trimethyl-lysine at K9) [H3K9me3 peptide (unlabeled; ARTKQTAR{K-me3}STGGKW)], the binding result in experiment [2] was “binds”.
As to ARTKQTARKSTGGK (trimethyl-lysine at K9; FAM (fluorescein) on K14) [H3K9me3^(FAM) peptide (ARTKQTAR{K-me3}STGG{K-FAM})], the binding result in [3], in experiment [4] and in experiment [5] was “binds” each time.
On to ARTKQTARKSTGGKW (trimethyl-lysine at K9; biotin on K14) [H3K9me3^(Biotin) peptide (ARTKQTAR{K-me3}STGG{K-biotin}W)], for which, in experiment [2], the binding result was “binds”.
Turning to B1, the binding result in [6] and in experiment [7] was “binds” in each case.
In the case of {FAM}-GKGKWKRKSAGGGPS [PBR^(FAM) peptide ({G-FAM}KGKWKRKSAGGGPS; UHRF1 polybasic region, residues 643-657)], in experiment [5], the binding result is “binds”.

B2: GST-UHRF1^(PHD; 337A) (domain or fragment, human (by the printed accession), UniProt Q96T88-1 298-366, looked up)
chain: SGPSCKHCKDDVNRLCRVCACHLCGGRQDPDKQLMCDECAMAFHIYCLDPPLSSVPSEDEWYCPECRND
On to B2, for which the “fold impairment of binding against GST-UHRF1^PHD” value in experiment [8] is roughly 12 fold.
